Laboratory results published in patent US11230581B2, “Peptides and combination of peptides for use in immunotherapy against ovarian cancer and other cancers” (Immatics Biotechnologies GmbH, priority 2015, dated 2022).

biological target: HLA-A*02:01 (Homo sapiens, UniProt P04439, D140Y/D185E/D98H/E176V/E277Q/G131W/G231S/I119V/I121R/I166T/I218V/L300P/L318F/N151K/N90K/P208A/P217A/Q86G/Q94H/R138H/R169H/T345S); assay: MHC binding assay (UV-ligand exchange, β2m ELISA, peptide exchange yield); conditions: binding of HLA-class I restricted peptides to HLA-A*02:01, UV-ligand exchange
Procedure, shortened: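 Peptide-MHC complexes formed by UV-ligand exchange, cleaving a UV-sensitive placeholder peptide in favour of the test peptide. Exchange yield measured by ELISA: monomers diluted 100-fold onto streptavidin-coated plates, 1 h 37 °C, detected with 2 ug/ml HRP anti-β2m and TMB, absorbance at 450 nm.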

Peptide exchange (MHC class I binding score, peptide exchange yield) | Substance
“++++” (≥75% = ++++) | 552 (GLLDLPFRVGV; listed as Homo sapiens) [compound 552]
“++++” (≥75% = ++++) | 553 (SLLNQDLHWSL; listed as Homo sapiens) [compound 553]
“+++” (≥50 = +++) | 554 (LLMPSSEDLLL; listed as Homo sapiens) [compound 554]
“+++” (≥50 = +++) | 555 (YVLEGLKSV; listed as Homo sapiens) [compound 555]
“+++” (≥50 = +++) | 556 (FLTDLEDLTL; listed as Homo sapiens) [compound 556]
“+++” (≥50 = +++) | 557 (KLYDDMIRL; listed as Homo sapiens) [compound 557]
“+++” (≥50 = +++) | 558 (GLLENIPRV; listed as Homo sapiens) [compound 558]
“++” (≥20% = ++) | 559 (VTVPPGPSL; listed as Homo sapiens) [compound 559]
“+++” (≥50 = +++) | 560 (ALWDIETGQQTTT; listed as Homo sapiens) [compound 560]
“+++” (≥50 = +++) | 561 (YLQLTQSEL; listed as Homo sapiens) [compound 561]
“+++” (≥50 = +++) | 562 (YLEELPEKLKL; listed as Homo sapiens) [compound 562]
“+++” (≥50 = +++) | 563 (WLLPYNGVTV; listed as Homo sapiens) [compound 563]
“+++” (≥50 = +++) | 564 (TVTNAVVTV; listed as Homo sapiens) [compound 564]
“++” (≥20% = ++) | 565 (ALQETPTSV; listed as Homo sapiens) [compound 565]
“++” (≥20% = ++) | 566 (VIADGGIQNV; listed as Homo sapiens) [compound 566]
“+++” (≥50 = +++) | 567 (SLLPLDDIVRV; listed as Homo sapiens) [compound 567]
“++++” (≥75% = ++++) | 568 (TLYDIAHTPGV; listed as Homo sapiens) [compound 568]
“+++” (≥50 = +++) | 569 (KLVDRTWTL; listed as Homo sapiens) [compound 569]
“++” (≥20% = ++) | 570 (ALANQIPTV; listed as Homo sapiens) [compound 570]
“+++” (≥50 = +++) | 571 (LLLTTIPQI; listed as Homo sapiens) [compound 571]
“+++” (≥50 = +++) | 572 (ALADLIEKELSV; listed as Homo sapiens) [compound 572]
“+++” (≥50 = +++) | 573 (ILVANAIVGV; listed as Homo sapiens) [compound 573]
“++” (≥20% = ++) | 574 (YLLQEPPRTV; listed as Homo sapiens) [compound 574]
“+++” (≥50 = +++) | 575 (YLISQVEGHQV; listed as Homo sapiens) [compound 575]
“++++” (≥75% = ++++) | 576 (ILLNNSGQIKL; listed as Homo sapiens) [compound 576]

Peptide exchange (MHC class I binding score, peptide exchange yield) | Substance
“+++” (≥50 = +++) | 577 (VMFEDGVLMRL; listed as Homo sapiens) [compound 577]
“+++” (≥50 = +++) | 578 (FLDPGGPMMKL; listed as Homo sapiens) [compound 578]
“++” (≥20% = ++) | 579 (NLMEMVAQL; listed as Homo sapiens) [compound 579]
“++” (≥20% = ++) | 580 (LLMENAERV; listed as Homo sapiens) [compound 580]
“+++” (≥50 = +++) | 582 (TLCDVILMV; listed as Homo sapiens) [compound 582]
“+++” (≥50 = +++) | 583 (ILANDGVLLAA; listed as Homo sapiens) [compound 583]
“+++” (≥50 = +++) | 584 (ALAEVAAMENV; listed as Homo sapiens) [compound 584]
“++++” (≥75% = ++++) | 585 (ALWDLAADKQTL; listed as Homo sapiens) [compound 585]
“+++” (≥50 = +++) | 586 (KLKPGDLVGV; listed as Homo sapiens) [compound 586]
“+++” (≥50 = +++) | 587 (VMNDRLYAI; listed as Homo sapiens) [compound 587]
“+++” (≥50 = +++) | 588 (SLLPLSHLV; listed as Homo sapiens) [compound 588]
“+++” (≥50 = +++) | 589 (KLYPQLPAEI; listed as Homo sapiens) [compound 589]
“++” (≥20% = ++) | 590 (SLIEKLWQT; listed as Homo sapiens) [compound 590]
“+++” (≥50 = +++) | 591 (SMAELDIKL; listed as Homo sapiens) [compound 591]
“+++” (≥50 = +++) | 592 (RLLSAAENFL; listed as Homo sapiens) [compound 592]
“+++” (≥50 = +++) | 593 (GLPRFGIEMV; listed as Homo sapiens) [compound 593]
“+++” (≥50 = +++) | 594 (IMLKGDNITL; listed as Homo sapiens) [compound 594]
“+++” (≥50 = +++) | 595 (VLLSIYPRV; listed as Homo sapiens) [compound 595]
“+++” (≥50 = +++) | 596 (ALLDQTKTLAESAL; listed as Homo sapiens) [compound 596]
“+++” (≥50 = +++) | 597 (KLLEGQVIQL; listed as Homo sapiens) [compound 597]
“+++” (≥50 = +++) | 598 (FLFPHSVLV; listed as Homo sapiens) [compound 598]
“+++” (≥50 = +++) | 599 (YLLNDASLISV; listed as Homo sapiens) [compound 599]
“+++” (≥50 = +++) | 600 (ALAAPDIVPAL; listed as Homo sapiens) [compound 600]
“+++” (≥50 = +++) | 601 (SAFPFPVTV; listed as Homo sapiens) [compound 601]
“++++” (≥75% = ++++) | 602 (YLLEQIKLIEV; listed as Homo sapiens) [compound 602]
